Experimental data: patent US12391919B2, “Culture medium, coating matrix and method for maturing midbrain dopaminergic progenitor cells” (NUWACELL BIOTECHNOLOGIES CO., LTD., priority 2022, dated 2025)

Tested on: imDAPs
Assay: imDAP maturation: cell morphology, adhesion and cell yield
Format: cell-based, human
Details: Example 13; maturation media supplemented with 10 μM Y27632; day 7; FIG. 8A
Protocol: imDAPs were produced according to the method described in CN201910169525.0, and expanded as described in Example 10. […] MM-H used in Example 11 contained the following components: Neurobasal™ medium, 1% (v/v) Glutamax, 0.5 mM Db-cAMP sodium salt, 200 μM ascorbic acid, 20 ng/ml BDNF, 20 ng/ml GDNF, 1 ng/ml TGF-β3, 10 μM DAPT, HhPLT (0.5%, 1%, 2%). MM-B used in Example 11 contained the following components: Neurobasal, 1% (v/v) Glutamax, 0.5 mM Db-cAMP sodium salt, 200 μM ascorbic acid, 20 ng/ml BDNF, 20 ng/ml GDNF, 1 ng/ml TGF-β3, 10 μM DAPT, 2% (v/v) B27 (50×) (as control). The above HhPLT was produced from hPLT as follows. The hPLT was centrifuged at 3000 g for 30 min at 4° C. to obtain the supernatant, which was heated to 56° C. for 30 min. The suspension was finally cooled down to 4° C. at least 5 min, and spun at 3000 g for 30 min at 4° C. to obtain the HhPLT supernatant. Aliquots were prepared and stored at −80° C. until use. The above Medium was changed every 3rd day. On day 7, the imDAPs at early maturation stage were dissociated enzymatically with 1× TrypLE, centrifuged at 250 g for 5 minutes.
imDAPs were produced according to the method described in CN201910169525.0, and expanded as described in Example 10. […] Medium was changed every 3rd day. On day 7, the imDAPs at early maturation stage were dissociated enzymatically with 1× TrypLE, centrifuged at 250 g for 5 minutes. Cells were collected for RT-qPCR analysis of EN1, LMX1A, FOXA2, NURR1, SOX6 and TH gene expression. The maturation medium used in Example 12 contained the following components: Neurobasal™ medium, 1% (v/v) Glutamax, 1% (v/v) HhPLT, 0.5 mM Db-cAMP sodium salt, 200 μM ascorbic acid, 20 ng/mL BDNF, 20 ng/mL GDNF, 1 ng/mL TGF-β3, 10 μM DAPT.
imDAPs were produced according to the method described in CN201910169525.0, and expanded as described in Example 10. […] Cells were collected and counted by Vi-cell cytometer. The cells were analyzed by RT-qPCR for EN1, LMX1A, FOXA2, NURR1, SOX6 and TH gene expression. […]

B1: VTN: vitronectin, first coating matrix that supports cell adhesion (protein, UniProt P04004 20-478, looked up)
Vitronectin: DQESCKGRCTEGFNVDKKCQCDELCSYYQSCCTDYTAECKPQVTRGDVFTMPEDEYTVYDDGEEKNNATVHEQVGGPSLTSDLQAQSKGNPEQTPVLKPEEEAPAPEVGASKPEGIDSRPETLHPGRPQPPAEEELCSGKPFDAFTDLKNGSLFAFRGQYCYELDEKAVRPGYPKLIRDVWGIEGPIDAAFTRINCQGKTYLFKGSQYWRFEDGVLDPDYPRNISDGFDGIPDNVDAALALPAHSYSGRERVYFFKGKQYWEYQFQHQPSQEECEGSSLSAVFEHFAMMQRDSWEDIFELLFWGRTSAGTRQPQFISRDWHGVPGQVDAAMAGRIYISGMAPRPSLAKKQRFRHRNRKGYRSQRGHSRGRNQNSRRPSRATWLSLFSSEESNLGANNYDDYRMDWLVPATCEPIQSVFFFSGDKYYRVNLRTRRVDTVDPPYPRSIAQYWLGCPAPGHL
  cell adhesion and growth: could grow normally
